# According to the DeepSol protein solubility set:
# Assay: soluble on expression in E. coli; label from the status in PepcDB or PDB records
row,Sequence,soluble on expression in E. coli
1,GPGSMKRHGVRLRRSIKETAVTIGCDEAGRGPLAGPVVGAAVSRIPVSSFNNEFDQLYEAPEQFQIFDSKSVSERQRDLVFAMITGHVDFFDIASCKKFVVHHCAGDEATSLTLSSKKLDSHVKLSKLPFKKLLSMQTPYLITYHGYNSAGNYVYFWSIGIANHTYIDEYNIYNASMNTMHRSAQSIWHMLSDARFSHEAAPRPRSSSIAQYLFSRFCTAANHDNEKRYQVPHHLELLKGATEYFDFEPIQPPLVLIDGHAVPGPSYDYFTSVRIGGDVQPIIEGDKRSLSIAAASCLAKVTRDELMNYIDALYPGYGFRDNKGYPVEQHMKYVAKNGLCPIHRKTYRPCRTVLEKGLQRK,not soluble
2,GPGSMLARGCVLRWHAVSARRVLGLHDGQSYTPADIKKAFRERALTAHPDAGGDADGFRQLQRAYEVLLHEHSVGKKGSEAAAASDDSEGGSGFYAHPHAEWCNDMRSQRAYWRDMYTEMNMNPNSCGSHRHASNTHYQARQHYRTYGEGLGEDFQKEFKSSSFAGGGQRGSQMNFSTWYFYRPYYSNYRNPFGTGFTPEEIRRAEQEQRRGFARAVARHACLWSGLAFVVYLHERNNRVWRAVEARDKGYKDPEYWEQLRKDEEEARRRSRAPLRLEQHWLDAPLMRSLMDLTEGGHSGGCGKNGQDAEDNISGAARAGTAWATQQARMAQERRRQAMSSTRGMRRGASGDVGGPRVVSYQGRPFTPNGVRGMRNTAPKTPKTYADDVTYEMDDDDDV,not soluble
3,GPGSMLHPYIAGFDGLTCVAGTPADTLARNPDTGTTGRGTGSGVEGVFGTSLDVAGQLAGFETLTSASLNNNFLYDGLPSSGVTLREPLLSTHLTRSPTTLSTVGEAAMQPTQNPTQTPQQDPLPDLNTLATNAFFPFPSAAGAASAEGGQQQMATANLYGASQLESIMKASAGDGKSASTAPEPAANNLLGRLTVSTLAAQSATPGTSPQSQPCPVPQFTPLGAGACSNASRSSAPSYSSASVPIGCGPQMCSGDTSFLYPNFVNEMSSVTPPQSVQGHTEGFVAGVTTPPAMPMNSSTMSNKGGSMNDNTSTSLSQATSSGIATSSGQPNDVEVRSNLFVCGLPVSVRDKELLELFEKHGEIESAKVMLDIHTGRIRGIAFVKFKNVEHAENAVDALNGTTVNGHQITVRVANSRAAYLPGNPTNKTFVRNVPLTVSRTTLFEYFAQFGEVTDLSIKSDTAQGRHNPSGRSASTTEDGADDKLNIVFITYSTKEAAAKAAEATHTKTPFKECNGVPLLAKVAEDTVRRMERLSRRQRPATGAEGTREVSTSSSSTNVASMSRFAAPSMGAALPTGMMMPPMMPMAGSFPPGTFVSVPTMGNTPDLTAPTMMPASVAGDHMTALRDASGNPIYSPAQPNPATATGGMAYAMPGNMAQPSIFFSAQPPPPAINQSPPQQSQQQPQAQPQTLYISTPNGFVPAPQQHQQQQQLPQPPPPQQQQPLQFFPAPPLLPQVPQQSQQTMPMPGAAPGQLVYMQTPNGSMMPVMYGGAQPATASMLPTQQMNPYFVMMGGQPPSNQ,soluble
4,GPGSMNPHSRMPEDGGNAQPNETHRLMVGAAGQRPNVSGQFGKSTSPSLVAFAFLHLPLEDGCGAEEEEQNFLAFDVTTWATRIRNEGISGAVVDLWGAYNYYWHQADDRVQLALDSLASWMHALEMDRDPADRFTDLGRILLQVFWLQMMVTTANPGITISTLCARLHMAVHEAETCARATKPLA,soluble
5,GPGSMNRAESSANALGEEFVKNMNTALDIVESLVAKGEAQFAILASAKSTFCVGADIDQMYTVTDPAVAVQVPTVGHKLFNRIEQEKFPIVAAINGLALGGGFEMSLACHQRLMASTAKVGFPECLLGLLPGGGGTVRTQRLCGLTKTVQWIMTSKQIKPQEAKSAGACDVIIPADDRWNGEHRFYEGVRKWAGQYLSNKPARLSKRKNISLMDQVLENTTFGRRKVADETIKMLNKKTRGKYIAQYKALECIMYSATHSNQQGFDKECRGFAELLCSPEAKNQMSLYFLQEGMKKSADKTGVPKDKVMPVNRVGVIGAGVMGSGIVHYFAKNNIPVAVKDLTEESVKQGITNVRAEFERAVRRKRMVTAELDGKMALVTGGTTNEVFRDADVIVEAAVEVMDIKKKVIQQLEKDGILHSKSLFATNTSSLSLTEMQTVAKCPHNIVGMHFFNPVSKMPLVEVIKGKSTSTEAAAAIFNLALKTGKIPIIVNDGPGFLVNRILGVYMAEAGRLAVDERCHPACVDEAILAFGMPMGPFRLLDEVGLDVACHVGPVLANGLKSDRFSVSATISQMVADGYLGRKNRKGFYTYAAEGKEAGLNSAVLQKYLGEELSASISETEIVDRCVLLMVNEATRILDEGIAMSPEDVDTGMVWGTGFPPFRGGLLQYADHRGIANVVAALEQLQRKTKRDYFAPTETLKKMAIEGKRFFPTRPYVPYQERHGYPKVTY,not soluble
6,GPGSMPPKKKVERKEEQVFVEENGSYVHQREMARYTGGVRRLTDSNFCCRHGQGTYSSPLIHYEGNWSEDEMHGNGTLRFLVSGDSYTGQFVHGVMEGCGTYIWASGAMYDGGWRGNRMHGLGTYTDVGGKVWSGKFYNGSGPGLTPCVTTGGGVAAADKRDVLKDEKEG,not soluble
7,GPGSMPRGAIPTGQDWEEQRFNFQQRGSGGSAQPRKVTERDANRAMQSGQNVQVQRKEHQRFNQQTVSAGANAKKLDEDNETLKVKKVDPHLRVRIMKERQALNWSQQDLAQRISERVSVVAEYESGKAVQEERVIVKMEKALGVHLRGAKAGEPMGKTRPAPKAQE,soluble
8,GPGSMPSKEASSRNLPISGRDTNGKTYRSTDEMWKAELTGDLYDPEKGWYGKALEYWRTVPATVSGVLGGMDHVHDVDIEGSRNFIASLPGHGTSRALDCGAGIGRITKNLLTKLYATTDLLEPVKHMLEEAKRELAGMPVGKFILASMETATLPPNTYDLIVIQWTAIYLTDADFVKFFKHCQQALTPNGYIFFKENCSTGDRFLVDKEDSSLTRSDIHYKRLFNESGVRVVKEAFQEEWPTDLFPLKMYALK,soluble
9,GPGSMRDLNKRQQKFVCGCLGITSWDGKDIPFYVETMPKINDVVWVKITQVNDTSAVVQLLEYGKREGIIPYTEVTRRRVRSMGKLIKVGRTEPAQVIRIDKDKGYIDLSKKLVTPNEAKACEAHFRQGNEVRSIVCHVAELCDIPAMDAMEMIAYPLYQREPGKHAWTWLYELNQTEDVERILGPLKLEKAISDCLMLTLKNAMRLKVLTLFAEVEITCFACDGVEAIRDVLILGRSYGEGSDPQIHLSVNIIGPPKYGIRARTDMKEEGIQRMKEAIEAMTAEIKKRGGQLKVVSPPQPHGDADEGKKGFDGEDDDDEDAD,soluble
10,GPGSMRGKTKKRKIYKRFSSLPKTETSTLPTVHSHTTCIRVQHVSHHLHAYICTLVSGMSHHRMWPSPITPSRTDATTTTTKTTTKNDTYSPHKKNTNTPHAKGRSYIVNLCHSFYSPTGDETVIWVTNVVRSCAAKYNYIPHILHSHETLVKRRCNENAANEKCLIRC,not soluble
11,GPGSMSAAVTWLQNSLGIDVTGEWARHVHLNVGGTLYTTRRYTLRELKDHRIFGPILDGHAHRCEDGSFLIDRDGSLFRYIIAYLRDGRLSVPENFAEWDMLLQEVRYYELPAMEKSVMDHFEFQQSVFRRQLPHGVYVWWPPASSQIEEGATVKAAPCDCPASVPPPPLSLFALPITDSATGRCEARGATEDQTRALEKVHVEAAADAATRSSAGAAPSSCSSASMSVRIVPPLPGLTVEMSSGRRVMFRETQVLQDLDQLVTVLLTAYGFSIQHWDTERGRVLLTLPGLM,not soluble
12,GPGSMSAIVPAAHAREDMGGCAPCRVSSFHPCEGDGAEEKECNASSGADAAAAAEPLDPLRCFSAFDVLRDVLAACTCAPALSRSTEKGADSPSLLPGAPLPSAWRTEQTREALRTLVDLVAADVGVSSARHGQGEAPEEAEIARSRLSVDALLLHLTTEGPNLRAALRRRRRQLLPMPPRDDATTQSEREACDEAHAACEEDEALAALTRCAASVALINRDLGSSARKGRKAVQTAASCVLQTRTALSLLRTSSLVHQPLRAGAGHAAASRSAIAAADVSAYWCSTGCMGLDQALGGGGFRSGWVTEVYGEAGAGKTQLGLQCLLQQAATDVCHAAVALALASGADFTSLAHMATTTGMCGSRSPVVKCMEVFDRDAVEAARCAVVYLVSEDVPTSRLGPLAAAAVGRAVRAVRLHPLVNQLPSGVVKTVWGCVERTCTVPTVLSRLQIRHVASVAEVLRLLEPLPHPQLAQVSRTSSPPNVIPNRAQRPRNSNLVEAVRVLAGTHGRAVVVLDSVAAAVVAGQWDMQGVAQADATVTALSLRLRQAAMTHNWCIVVTNQVRAIPTTARQRQCALAPIKRARSPTTSSTASAPSVTRTVVPALGFSWASAAHCRVFLRKSLSHGVRQLVLRHAPSHPPAQASYLITEHGIEDA,not soluble
13,GPGSMSKGFEVYPLTGSHKEVVINEALIRSAISFKPSLTTEDDRVRVVGNQEKALCEEKVQKEAAGIALEDVQTLLLSFRGIKRLENLSCLRSLTKLHLDNNRIRCIEHLESLVHLEWLDLSYNAIEVIDGLQALQHLNCLSLYANKITAVDGLTCLPELNTLSLGRNPLENIDETVHYLHHLPRLQVLTLKECPLAGLPNYRSRVLAFVRGLKFFDGHLVRHDEAAKAREAFRENLLTVDEEDEARAAAAKLQADQEIIASSYQQYNCPNEVMLFDELLHLDPEGRHMEAILRSEAVFSVAKEPLDRYQTEFNEQLRQLTAAMKDIRERRDADDAAYREAVTYTLRHSAAASLASMQRFEALAKGHIVKGVAQPVPGPAKRLPSQATRSLHAALDKLKKDLLEEEAHQYDVLEVLHNNTIAKWKSHSVEVVLQSSFEALLRLETDFQATVRHIFDAVFEERRKGDNAERAFRYVGQDDAMLAFLDNKEEYQRTVNEWYELRRKRVEELEMHHLKAEETLLNARANSILAAEQDRHRRRVHEVCQYVKEMSSRIDGCDH,not soluble
14,GPGSMSKQLTFISAGATAAVLQSASAIVSKVAGGRVQTKTAKEAGRHAVVVGPETPIGVHTAVTEAPKSAQDPLFSGVSTVVVRAVLPRAAPDSVQLRDALDVYASAGIDTKEEVRSATEAFKKSAEVAVGKAKAKGVKRIVLVVKQASKHNCINELFKKISTETIESAGLTTEVVGTASVANQLIVNPESLGVVLLNDVAATEQIELAFAGVVGGVSRVYHTVEGGKISAGHSFKSVALAVAQELRELGLSSEADKVEAAASKNPRAVVSAL,not soluble
15,GPGSMSMNVYKRQEKLRLYRALLKGANRFPLRSRREIVTEEVRGAFRHPLNDSLTTKEVDYKLLLGWERAAAIQTYAENMYWFHSRDEVSREMMHHSLERDRQRIREMERCNAVGNAEIKTPEVTEFKSSMYHVHPDYHGKIGQMPLTHSRDIWRARGQYGSDVGGPRQKFYVRRFKALFPQGW,not soluble
16,GPGSMSRTQTSSKSVPKNIAVYCRVRPPVPNEKGHTFQNISYDDSDSRAIAVARKSGTKALEKTYLFNRVFRPTATQKDVYETFAKGAVDAAFDGQHGVLFVYGQTGSGKTFTISNDEPNNEGVLQRSMRDIWNRIASDTANDYSCSVSYVQLYNEILTDLLDDAKGKVRIQMGSEGRGDVVMVSDSTGMAIEREVKDYKSTMACFQVGLARKEMASTSMNSTSSRSHTIFTLNIVKAKKVVAVTV,not soluble
17,GPGSMSSADLFKKFTLQNVAQIANSSHKEQMQVRHDLAEQYPQLADFWEDIMPRKSDIMLVRCHDQVHCVTLVSAQPEVLFFNHHNGPYIPHLKLLHKYPFILQRHQVDVGACKHVLSGANIMCPGLTSKGGYITPEIPAGQLVAVYVETKEHAVAIGKTLMSSEEIKKVNSGPCIENIHHVGDGLWMNRVLSASHIGAR,soluble
18,GPGSMSSGSHRSPSAMRPSTRISSIGATSNRSSTHNTETELDPFVASLSRVTVYTDIPDKTLQRIMSITVDAYNRFVLVPTRNTWRKEEGSRKELEREVERTALRDIAQAVKVNVEAALGGTWHVIYGRSFATYVTHQQRCFCHFQLDGANVVVWRHGG,soluble
